Earlier results, collected in publication PMC3417354.

Molecular target: PCNA (Homo sapiens) (UniProt P12004)
Sequence (P12004 whole entry): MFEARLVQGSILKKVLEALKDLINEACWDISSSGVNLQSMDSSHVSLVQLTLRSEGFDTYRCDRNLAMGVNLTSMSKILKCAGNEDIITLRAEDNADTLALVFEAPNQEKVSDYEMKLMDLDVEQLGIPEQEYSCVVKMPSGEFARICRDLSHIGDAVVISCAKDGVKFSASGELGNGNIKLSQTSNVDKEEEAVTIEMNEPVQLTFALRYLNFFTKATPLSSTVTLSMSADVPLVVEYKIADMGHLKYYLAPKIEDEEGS

p21 peptide 141-160, sequence (P38936 141-160): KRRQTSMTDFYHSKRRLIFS

Kd: 88 nM
Substance: p21 peptide 141-160 (from UniProt P38936)
